According to PMC2935179:
Where two headings read alike, the source gives them in different places.

Experiments:
[1] = biological target: T1, Δ22 (FLI portion of EWS/FLI) (UniProt Q01543 220-452); assay: fluorescence polarization stoichiometry
T1 sequence: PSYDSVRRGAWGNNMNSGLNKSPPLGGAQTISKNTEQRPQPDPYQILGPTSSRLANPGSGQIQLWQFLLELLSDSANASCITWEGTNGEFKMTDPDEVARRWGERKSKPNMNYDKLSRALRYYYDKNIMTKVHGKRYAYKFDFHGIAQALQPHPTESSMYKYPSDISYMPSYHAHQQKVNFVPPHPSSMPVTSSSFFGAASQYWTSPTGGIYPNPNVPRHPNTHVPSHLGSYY

[2] = biological target: T2, Δ22 (FLI portion of EWS/FLI);FLI ETS domain (;, UniProt Q01543;Q01543 220-452;270-371, |); assay: EMSA
T2 sequence 1: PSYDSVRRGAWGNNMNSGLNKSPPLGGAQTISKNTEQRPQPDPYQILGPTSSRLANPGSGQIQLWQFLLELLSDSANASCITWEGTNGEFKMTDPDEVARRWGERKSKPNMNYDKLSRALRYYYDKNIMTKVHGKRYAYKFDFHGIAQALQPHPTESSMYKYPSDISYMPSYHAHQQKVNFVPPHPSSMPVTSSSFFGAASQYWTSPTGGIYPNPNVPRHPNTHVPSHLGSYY
T2 sequence 2: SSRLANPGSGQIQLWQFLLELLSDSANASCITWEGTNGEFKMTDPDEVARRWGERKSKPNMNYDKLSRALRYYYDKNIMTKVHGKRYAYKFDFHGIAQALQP

[3] = biological target: T2, Δ22 (FLI portion of EWS/FLI);FLI ETS …; assay: EMSA; remark: listed apart in the source
ETS1 = biological target: T3, ETS1 (UniProt P14921 1-441); assay: EMSA
T3 sequence: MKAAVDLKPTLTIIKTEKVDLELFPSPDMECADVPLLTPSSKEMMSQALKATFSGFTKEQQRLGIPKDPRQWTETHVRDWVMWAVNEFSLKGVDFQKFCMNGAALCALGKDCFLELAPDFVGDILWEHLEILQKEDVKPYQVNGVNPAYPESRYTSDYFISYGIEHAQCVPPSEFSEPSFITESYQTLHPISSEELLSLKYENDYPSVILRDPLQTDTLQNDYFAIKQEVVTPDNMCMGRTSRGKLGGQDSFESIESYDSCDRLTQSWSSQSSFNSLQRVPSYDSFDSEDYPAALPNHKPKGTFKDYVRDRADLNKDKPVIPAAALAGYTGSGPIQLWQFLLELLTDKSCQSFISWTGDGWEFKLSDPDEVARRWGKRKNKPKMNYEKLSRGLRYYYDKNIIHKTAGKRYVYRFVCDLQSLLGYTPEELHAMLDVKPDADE

ELF1 = ELF1 (UniProt P32519 1-619); assay: EMSA
ELF1, sequence (P32519 whole entry): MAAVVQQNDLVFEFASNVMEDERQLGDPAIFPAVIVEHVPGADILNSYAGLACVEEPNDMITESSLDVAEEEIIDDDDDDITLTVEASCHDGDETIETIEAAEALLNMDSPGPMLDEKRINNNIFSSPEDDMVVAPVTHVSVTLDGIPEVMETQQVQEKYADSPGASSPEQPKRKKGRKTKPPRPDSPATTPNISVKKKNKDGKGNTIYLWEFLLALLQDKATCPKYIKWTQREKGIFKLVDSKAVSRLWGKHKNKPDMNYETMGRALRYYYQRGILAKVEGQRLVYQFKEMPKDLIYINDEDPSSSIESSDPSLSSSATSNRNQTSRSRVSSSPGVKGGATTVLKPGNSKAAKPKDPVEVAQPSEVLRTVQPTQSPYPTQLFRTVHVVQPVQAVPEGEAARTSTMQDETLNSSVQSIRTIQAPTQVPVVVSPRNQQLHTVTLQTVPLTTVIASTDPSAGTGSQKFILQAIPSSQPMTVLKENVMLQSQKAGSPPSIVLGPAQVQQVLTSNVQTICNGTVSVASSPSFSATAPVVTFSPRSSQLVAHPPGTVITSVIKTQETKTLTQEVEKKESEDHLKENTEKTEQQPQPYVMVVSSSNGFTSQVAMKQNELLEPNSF

B1: 6 GGAA motifs (dsDNA)
DNA 1: TGCAGGAAGGAAGGAAGGAAGGAAGGAAAGCT
DNA 2: AGCTTTCCTTCCTTCCTTCCTTCCTTCCTGCA
binding result [1]: binds
binding result [2]: binds

B2: 4 GGAA motifs (dsDNA)
DNA 1: TGCAGGAAGGAAGGAAGGAAAGCT
DNA 2: AGCTTTCCTTCCTTCCTTCCTGCA
binding result [3]: binds

B3: 5 GGAA motifs (dsDNA)
DNA 1: TGCAGGAAGGAAGGAAGGAAGGAAAGCT
DNA 2: AGCTTTCCTTCCTTCCTTCCTTCCTGCA
binding result [1]: binds
binding result [2]: binds

B4: 7 GGAA motifs (dsDNA)
DNA 1: TGCAGGAAGGAAGGAAGGAAGGAAGGAAGGAAAGCT
DNA 2: AGCTTTCCTTCCTTCCTTCCTTCCTTCCTTCCTGCA
binding result (ETS1): binds
binding result [1]: binds
binding result (ELF1): binds
binding result [2]: binds
